Data taken from the DeepSol protein solubility set.

assay: soluble on expression in E. coli; label from the status in PepcDB or PDB records

Sequence	soluble on expression in E. coli
MPFLPPLTPPTELYLGIQLPNPISILVNYLPVSQTPIETLRNLVYSCNINTLAIDEFMTWPSLLQPESTFRSYFELLVERGSIPAVYLEGVRQASNFVTVAQGLSVMTTVALSDPFACFATGLFLTCTGNHLDFLPISEKFWEMTPTLEAGHAVAEMVMYHISQLHTENARRWERSWRFVHPPSCVGQGDCYILLEAKLLRFKLLYSALLSSLLV	not soluble
SMTGPIVYVQNADGIFFKLAEGKGTNDAVIHLANQDQGVRVLGAEEFPVQGEVVKIASLMGFIKLKLNRYAIIANTVEETGRFNGHVFYRVLQHSIVSTKFNSRIDSEEAEYIKLLELHLKNSTFYFSYTYDLTNSLQRNEKVGPAASWKTADERFFWNHYLTEDLRNFAHQDPRIDSFIQPVIYGYAKTVDAVLNATPIVLGLITRRSIFRAGTRYFRRGVDKDGNVGNFNETEQILLAENPESEKIHVFSFLQTRGSVPIYWAEINNLKYKPNLVLGENSLDATKKHFDQQKELYGDNYLVNLVNQKGHELPVKEGYESVVHALNDPKIHYVYFDFHHECRKMQWHRVKLLIDHLEKLGLSNEDFFHKVIDSNGNTVEIVNEQHSVVRTNCMDCLDRTNVVQSVLAQWVLQKEFESADVVATGSTWEDNAPLLTSYQNLWADNADAVSVAYSGTGALKTDFTRTGKRTRLGAFNDFLNSASRYYQNNWTDGPRQDSYDLFLGG	soluble
MGSDKIHHHHHHMITQQQIETVLGQIIDPTTGKDYLTSKAVSDIQIKQDNVSVNIELGYPAKSVLNTVHQQIEQAIRTVPGIGSITVNVTSNIIAHSAQRKLKLIPGVKNVIAVASGKGGVGKSATAVNLALALAAEGATVGILDADIYGPSQPQMLGVSGRPDSPDGKTIEPMQAHGIQMMSIGLLIDVETPMVWRGPMVTQALQQLLNDTRWHDLDYLVIDLPPGTGDIQLTLAQKIPVTGAVIVTTPQDIALLDARKGLKMFEKVGIPILGIVENMSLHTCSHCGHTEPIFGTGGGEKMCRDYNVELLGALPLDIRIREHTDAGKPSVVAEPDGQIADIYRTIARLVAAKISDMARDYSDVFTQIIMEDD	not soluble
MGSDKIHHHHHHMSYLTEKLREEKVFKDPVHGYVHVSDKIIWDLIATKEFQRLRRIHQLGTTSLTFHGAEHSRFNHSLGVYEIVRQIIDVTFANEPQLDPEERMVALCAALLHDLGHGPFSHAFEKVFGTDHESYTQEIIIGDTEVNKILMRAGEEFPLKVAAIIKKNYPNQTLVKLISSQIDADRMDYLLRDAYYTGVSYGKFDLERILRVLRPSPDGNGVIVKYSGMHAVEDYIMSRYQMYQQVYFHPVSRSGEVLLWKILERAKKLYCAGYEFQATPIQVLPFFLNEVSLKDYIVLDDIVLMYYFSIWQEEEDPILSDLCSRFLNRRLLRYINYDPKEDAELYAELKGLLEKADIDPSYYLVIDSSSDLPYDYYLPGVGSGKDPIKLLMGNGELRELSTESPVVEAIGRERRTDIKLYYPLDFIESGHVEEAITERMIALIHAHSLKEK	not soluble
MEILSDMWKEKITFIGINIDDEKSWKKFSQKNIKWITLNDPKEAFGLYIRYKANGIPFYVLVTPDGRISDIWYGYNKDSLSERLKQGVK	not soluble
MGSDKIHHHHHHMDAANVDLKAFTEDFYHRLCGAHLESVKETLVYLKHETDVWVEVTTLLIPGENDSPEEIDAQTKWMMAALGPDVPLHFSAFHPDWKMKDKTNTPPETLTRARDIAIRNGLRYVYTGNVHDPAGGGTYCSGCGALLIGRDWYELSTWALTPEGHCRECGTPLPGRFEAAPGTWGRKRQPVRFQR	not soluble
MGSDKIHHHHHHLPALRLLAGPTAYEQLEANGLDQSLFTQLFAASGGPKWLAIAGLDKYLFSEFFQDREDPLYTMGASSGAWRLACMAQQDPLAAYERLEHFYIHQNYEKKPTREQVSAQVLQIVDGILGEQQGADIIANPLIRHHMVACRARHLNRIHAKFGLMMGLSMAAVSNVVNRKSLGWHFERVILSHKDAASPFRRLKDLPTKHVELTQDNIRHGLLATGSIPLLLDPVKDLQGSPKGHYYDGGITDYHFDMPLPAATGLSLYPHFYPYMSPGWFDKSLLWRKAKANYHNGLILAPSKQFIASLPFSKIPDREDFKNLDTKSRITYWQQSVQQSQVLADEFAEIVASGTIMDRIERL	not soluble
MSEGSKQNKKSTDAFSKYMRKLFGIQEITESQREYIEKLERELESAKGTLSTREEKEMIRGLVKFGNIMVKQIMCPRMDMAAVDIALNYEQLQEYISTCGFSRIPVYKESADKIEGVLNIKDLFPFYNKEKDFNWQQLIRTVEFIPETKLIEELLREFQLKHLHMAIVVDEYGGTAGLITMEDVIEEIVGDIHDEYDDDEKPYAQLSDTSYLFEGKISLVDFYKAIELDKDIFDEVKGESETLGGLLLNINSDLPRLGDEIIYEGYVFKIDAVNSKRILRVKVTVPENSENEK	soluble
SIEKARSAAAKEVQKMKTSDKAEATHYLQMGAYADRQSAEGQRAKLAILGISSKVVGYQAGHKTLYRVQSGNMSADAVKKMQDELKKHEVASLIRSIESK	not soluble
MVNLELIEVQEGKAKILIPKAESIYDSPVFYNPRMALNRDIVVVLLNILNPKIVLDALSATGIRGIRFALETPAEEVWLNDISEDAYELMKRNVMLNFDGELRESKGRAILKGEKTIVINHDDANRLMAERHRYFHFIDLDPFGSPMEFLDTALRSAKRRGILGVTATDGAPLCGAHPRACLRKYLAVPLRGELCHEVGTRILVGVIARYAAKYDLGIDVILAYYKDHYFRAFVKLKDGARKGDETLEKLGYIYFDDKTGKFELEQGFLPTRPNAYGPVWLGPLKDEKIVSKMVKEAESLSLARKKQALKLLKMIDQELDIPLFYDTHAIGRRLKIETKKVEEIISALREQGYEATRTHFSPTGIKTSAPYEVFIETIKRI	soluble
MKFLILSVSAGGGHIHAAFALKKYIAKYLEGSQVKMLDTIKYLNPFLDKVLIGGYLKTLKVSPALFGKLYNFTEKDDNLASLSNKINEFMAYKLIPIIEDFNPDVIICTHPFPTEMVSILKSKESLKTPMLCILTDYAPHSFWIRPQVNSYVVSNSDMVDEMVRRGVNRENIYDLGIPVDPDFIRNFDKIETLNELNLSLNKKTILIMGGSLGIGKIEDIYEALSKSRANIQIIIITGNNKKLYSKLLELAEDSYVETRILGYTRDVNRYMQASDLLLTKPGGLTITEALICRVPLAVFSPIPGQEEKNEDFLLKHNLAISIRDSENCLGIIESLISNPELLQAMKDNCNKFSKPSSGKDICNLLINLINKNQKIDVNNADYRN	not soluble
MRLFILLSCLLAWVLAAPYIDQEDALRVLNAYLEQFGPGSDRVYYVAEDDHGSMKRGLGPRPLRFG	not soluble
MVQDWHQQEKARMIQTLTGTKAVYGSEVESKIIEFAIVGADEVVAEKLGVSIGDFVYKIIRLRIIHSIPTIMEHTWMPISVIPGVEASVLEESIYSHIQNKLGLEVGTSVVRVKGIRPDDREKQFMNLTNQDFLMRVEQVAYLTDGRTFEYSYADHLPETFEFETVITAKKL	not soluble
MGSDKIHHHHHHMDSVKLIDLSEMRDILRSVNPFPGRWSFITSVEYMLDSRLYVDSIGDDAKVVRATLGPHDRNILDFGTGSGVFAIALRQVLPELDISAVDTTDNKSQSHPDFSDGQAAAHQRLIYPPLAERFRISFNHYNGHLLPYPDGSFDAISAYAVIEHIPHEELDAAMREIARVLKDDGKLFVFKMPRKLALVEHVAGILGLGRHDTLYGDGEALRLFRSYGWKVEKTFKSNMVFDYPGWLTNRLYHPLKLIDRILYWSPWRLFAHHNNFVLRKLERPQL	not soluble
MQVLHVCSEMFPLLKTGGLADVIGALPAAQIADGVDARVLLPAFPDIRRGVTDAQVVSRRDTFAGHITLLFGHYNGVGIYLIDAPHLYDRPGSPYHDTNLFAYTDNVLRFALLGWVGAEMASGLDPFWRPDVVHAHDWHAGLAPAYLAARGRPAKSVFTVHNLAYQGMFYAHHMNDIQLPWSFFNIHGLEFNGQISFLKAGLYYADHITAVSPTYAREITEPQFAYGMEGLLQQRHREGRLSGVLNGVDEKIWSPETDLLLASRYTRDTLEDKAENKRQLQIAMGLKVDDKVPLFAVVSRLTSQKGLDLVLEALPGLLEQGGQLALLGAGDPVLQEGFLAAAAEYPGQVGVQIGYHEAFSHRIMGGADVILVPSRFEPCGLTQLYGLKYGTLPLVRRTGGLADTVSDCSLENLADGVASGFVFEDSNAWSLLRAIRRAFVLWSRPSLWRFVQRQAMAMDFSWQVAAKSYRELYYRLK	not soluble
SMFRDQVGVLAGWFKGWNECEQTVALLSLLKRVSQTQARFLQLCLEHSLADCAELHVLEREANSPGIINQWQQESKDKVISLLLTHLPLLKPGNLDAKVEYMKLLPKTLAHSIEHNQHIEESRQLLSYALIHPATSLEDRSALAMWLNHLEDRTSTSFGGQNRGRSDSVDYGQTHYYHQRQNSDDKLNGWQNSRDSGICINASNWQDKSMGCENGHVPLYSSSSVPTTINTIGTSTSTSKFPGIPLT	soluble
MPKVRTKDLIEQFQLELISGEEGIHRPIDTSDLSRPGIEMAGFFTYYPADRVQLLGKTELTFFDTLTSDQKQERMKALCTEETPCIIVTRNQDVPDELLQASRESGMPLLRSSQTTTRLSSRLTNYLEGKLAPTTAVHGVLVDIYGVGVLITGQSGVGKSETALELVKRGHRLVADDSVEIRQEDEDMLVGSSPDLIEHLLEIRGLGIINVMTLFGAGAVRNYKRITLVINLEIWDQKKNYDRLGLDEEKMKIIDTELTKITLPVRPGRNLAVIIEVAAMNFRLKRMGVNAAQQFSERLMSAIELGNQE	not soluble
MVEIDFNKENEEDFSDPPGFVDDVTDDVLVPDVLHKKPTIDEFEDNCVFIAGIPVVGADRLGKLQSVLKKVLERLDPAVKLYIPPSPEGGCLGVLLTEWADQRSAQFAVKSLNGYAFDKNHTFTARSFKDMKQLEAPSDHWTTPEKQAYNDVGDLWWWLQNERCRDQFAISHDKLGVPTVGVFTNMKGNDPELAGDADKAERANWTETVFTWSPHGSYLSTIHKQGIILWGGKDYARAHRFAHTNVQYIDFSPWETYLVTYAAPEESNSWGDCEKDSLRIWDVRTGELKKAFSTFELTGRTQLPTWPFFRWSFDEKYFACLKAPEKDKLEREQKINGISIFESEKFELYEGRPVNIENIKQFEWSPTSTVLAYYSECTDAVPAEFGLLQVPSMQRLRSARVHNVADAQMFWQKSGKRLAFYTMRFKKKEYRETGEVKYVGGCQYHVDIFEIDKKDVSLMNLPLSEPFIHFDWDPEGDKFCVLVGNTAKATPQVYKIEANSHAPKLVSKLDAGVHFNEVQFAPKGGWLAVLAKVSAGGNVYFIDTSLSEAKRTNVIEHPLFNKGYWDPTGRYFVTCSTLGGRAGADLGYRIFTFQGRELCRKNLDRLAQFKWRPRPPVKLSEQKQREIKKNLKKTAAKFIKQDDDEKCRASQEVVEKRRKIMAAFDIIRSRNREQLDATRDERISLRNGVDTEAQLDEDEFVDEEITIALSTSKTQAPLTEEEMRD	not soluble
MSLSYLLALDAGTGSIRAVIFDLNGRQLAVGQAEWKHLSVDNVPGSMEFDLTTNWQLACQCIRQALDAARLSAADIQSVACCSMREGIVLYDRNGEAIWACANVDARASREVAELKEIHDFRFESEVYEVSGQTLALSAMPRLLWLAHHRPDIYRKAATITMISDWLAAKLSGELAVDPSNAGTTGMLDLFSRDWRPALLDMAGLRADMLSPVKETGTLLGAVTEAAAQQSGLRAGTPVVMGGGDVQLGCLGLGVVRAGQTAVLGGTFWQQVVNLPQVRTDPQMNIRVNPHVIPGMAQAESISFFTGLTMRWFRDAFCAEEKLIAERLGVDAYSLLEEMASRVPAGSHGVMPIFSDAMHFKQWYHAAPSFINLSIDPEKCNKATLFRALEENAAIVSACNLAQISQFSGVTFESLVFAGGGSKGALWSQILSDVTGLPVRVPVVREATALGCAIAAGTGAGLYDDMASTGERLVSWHREFTPNPQHRELYQEMMSKWQTVYADQLGLVDSGLTTSMWQAPGLERRQRVASSPSEGHHHHHH	soluble
